Patent publication US20250154278A1 (JANUX THERAPEUTICS, published 2025)
Numbering of substitutions follows the chain as printed. Names may count otherwise. Read-outs that look alike come from different tables or passages of the source.

Tests used:
[1] = target: T1, Human TROP2 full length, on tumor cells (HCT116, MDAMB231, NCI-H292) (human, UniProt P09758 31-323); assay: cell-based or functional assay
T1 sequence: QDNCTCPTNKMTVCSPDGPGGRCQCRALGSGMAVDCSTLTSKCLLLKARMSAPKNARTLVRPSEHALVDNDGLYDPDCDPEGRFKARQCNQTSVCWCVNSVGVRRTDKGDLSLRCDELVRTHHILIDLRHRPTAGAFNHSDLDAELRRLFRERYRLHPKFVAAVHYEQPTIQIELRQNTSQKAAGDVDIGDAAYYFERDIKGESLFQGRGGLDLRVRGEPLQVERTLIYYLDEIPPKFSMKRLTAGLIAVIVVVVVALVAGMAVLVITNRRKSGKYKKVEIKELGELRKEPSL

[2] = target: T1, Human TROP2 full length, on tumor cells …; assay: cell-based or functional assay; remark: listed apart in the source
[3] = target: T1, Human TROP2 full length, on tumor cells …; assay: cell-based or functional assay; remark: listed apart in the source
[4] = target: T1, Human TROP2 full length, on tumor cells …; assay: cell-based or functional assay; remark: listed apart in the source
[5] = target: T2, Human TROP2 ECD (31-274 AA), biotinylated (human, UniProt P09758 31-274, biotinylated (site not stated)); assay: BLI, human TROP2-biotin (10 nM) on sensor, 50 nM TCE
T2 construct: the entry is already residues 31-274; also called Human TROP2-biotin; hTROP2-Biotin
T2 sequence: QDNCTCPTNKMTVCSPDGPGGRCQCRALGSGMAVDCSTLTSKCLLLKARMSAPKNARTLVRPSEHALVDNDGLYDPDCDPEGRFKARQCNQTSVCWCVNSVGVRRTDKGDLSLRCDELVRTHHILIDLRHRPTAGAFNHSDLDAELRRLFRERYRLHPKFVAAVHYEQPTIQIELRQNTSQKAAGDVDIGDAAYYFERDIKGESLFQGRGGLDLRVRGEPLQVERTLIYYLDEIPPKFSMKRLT

[6] = target: T1, Human TROP2 full length, on tumor cells …; assay: cell-based or functional assay; remark: listed apart in the source
[7] = target: T2, Human TROP2 ECD (31-274 AA), …; assay: TROP2 binding ELISA; the table's head prints only 'EC50', the unit is that of the axis Log [TCE nM]
[8] = target: T3, human CD3 epsilon, biotinylated (human, UniProt P07766 23-126, limits assumed, biotinylated (site not stated)); assay: BLI, CD3e-biotin on sensor (summary)
T3 construct: Printed in places as CD36, CD38, CD3c or CD3&; also called CD3e-bio; human CD3e-biotin
T3 sequence (P07766 23-126 limits assumed): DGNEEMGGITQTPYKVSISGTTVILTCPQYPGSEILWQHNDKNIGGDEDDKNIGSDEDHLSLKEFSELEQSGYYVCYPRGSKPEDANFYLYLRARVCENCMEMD

[9] = target: T3, human CD3 epsilon, biotinylated; assay: ELISA, CD3e-biotin captured
[10] = target: T2, Human TROP2 ECD (31-274 AA), …; assay: TROP2 binding ELISA, biotinylated TROP2 on neutravidin plates
[11] = target: T4, Cynomolgus monkey TROP2 full length, on recombinant HEK293 cells (cynomolgus monkey, UniProt P09758 31-323 (human entry)); assay: cell-based or functional assay
T4 chain: T1 sequence with M32V, S63N, I200V, M262V, T268S

[12] = target: T3, human CD3 epsilon, biotinylated; assay: CD3 binding ELISA
[13] = target: T3, human CD3 epsilon, biotinylated; assay: Human CD3 binding ELISA
Cyno CD3 = target: T5, Cyno CD3 (Antigen was biotinylated for capture on neutravidin plates; the site of biotin and any tag are not stated.); assay: Cyno CD3 binding ELISA
T5 construct: also called cynomolgus monkey CD3
T5 chain: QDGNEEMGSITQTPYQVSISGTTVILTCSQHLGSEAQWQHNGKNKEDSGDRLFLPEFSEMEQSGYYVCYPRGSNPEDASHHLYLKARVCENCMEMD

[14] = target: T2, Human TROP2 ECD (31-274 AA), …; assay: ELISA, immobilized TROP2, HRP secondary antibody
[15] = target: T1, Human TROP2 full length, on tumor cells …; assay: cell-based or functional assay; remark: listed apart in the source
[16] = target: T3, human CD3 epsilon, biotinylated; assay: BLI, CD3e-biotin on sensor, 50 nM TCE

B1: TCE-9 (anti-CD3 scFv wt + linker + anti-TROP2 HC wt; anti-TROP2 LC wt) (bispecific antibody)
light: DIQLTQSPSSLSASVGDRVSITCKASQDVSIAVAWYQQKPGKAPKLLIYSASYRYTGVPDRFSGSGSGTDFTLTISSLQPEDFAVYYCQQHYITPLTFGAGTKVEIKRTVAAPSVFIFPPSDEQLKSGTASVVCLLNNFYPREAKVQWKVDNALQSGNSQESVTEQDSKDSTYSLSSTLTLSKADYEKHKVYACEVTHQGLSSPVTKSFNRGEC
heavy: not shown
H292 Cytotox EC50 [1]: 0.7 pM | H292 Cytotox EC50 [2]: 0.7 pM | H292 Cytotox EC50 [3]: 0.7 pM

B2: TCE-35 (anti-CD3 scFv with P41S, A49G, N87S, L150F, T151S, G163R, P175A, K181T, T200V, A202D, L208I, G211N, L217I, S218T, V220A, P222A, E223D, A226S, E227D; … (bispecific antibody)
light: B1 light
heavy: EVQLVESGGGLVQPGGSLKLSCAASGFTFNKYAMNWVRQASGKGLEWVGRIRSKYNNYATYYADSVKDRFTISRDDSKNTAYLQMNSLKTEDTAVYYCVRHGNFGNSYISYWAYWGQGTLVTVSSGGGGSGGGGSGGGGSQTVVTQEPSFSVSPGGTVTLTCRSSTGAVTSGNYANWVQQTPGQAPRGLIGGTKFLAPGVPDRFSGSILGNKAALTITGAQADDESDYYCVLWYSNRWVFGGGTKLTVLGGGGSQVQLQQSGSELKKPGASVKVSCKASGYTFTNYGMNWVKQAPGQGLKWMGWINTYTGEPTYTDDFKGRFAFSLDTSVSTAYLQISSLKADDTAVYFCARGGFGSSYWYFDVWGQGSLVTVSSASTKGPSVFPLAPSSKSTSGGTAALGCLVKDYFPEPVTVSWNSGALTSGVHTFPAVLQSSGLYSLSSVVTVPSSSLGTQTYICNVNHKPSNTKVDKKVEPKSC
H292 Cytotox EC50 [2]: 0.5 pM

B3: TCE-41 (anti-CD3 scFv with P41S, A49G, N87S and further mutations as in TCE-35; anti-TROP2 HC F108A) (bispecific antibody)
light: B1 light
heavy: B2 heavy with F362A
HCT116 Cytotox EC50 [4]: 73 pM | Kd [5]: 1220 pM | H292 Cytotox EC50 [6]: 3 pM

B4: TCE-45 (anti-CD3 scFv F104A, anti-TROP2 HC D109A) (bispecific antibody)
light: B1 light
heavy: not shown
EC50 [7]: 893 pM

B5: TCE-34 (anti-CD3 scFv F240A, anti-TROP2 wt) (bispecific antibody)
light: B1 light
heavy: not shown
CD3 t1/2 [8]: 39 s | EC50 [9]: 600 pM | H292 Cytotox EC50 [3]: 20 pM

B6: TCE-38 (anti-CD3 scFv H101A, anti-TROP2 HC F108A) (bispecific antibody)
light: B1 light
heavy: not shown
EC50 [10]: 1280 pM

B7: TCE-43 (anti-CD3 scFv wt, anti-TROP2 HC D109A) (bispecific antibody)
light: B1 light
heavy: not shown
H292 Cytotox EC50 [6]: 1 pM | EC50 [10]: 1070 pM | CynoTROP2 + HEK293 cells Cytotox EC50 [11]: 0.1 pM

B8: TCE-44 (bispecific antibody)
light chain (anti-TROP2 LC wt): B1 light
heavy chain (anti-CD3 scFv H101A + linker + anti-TROP2 D109A HC): not shown
notes: also called anti-CD3 scFv (H101A) + linker + anti-TROP2 (D109A) HC; anti-TROP2 LC wt
EC50 [7]: 1380 pM | EC50 [12]: 594 pM

B9: TCE-40 (anti-CD3 scFv F240A, anti-TROP2 HC F108A) (bispecific antibody)
light: B1 light
heavy: not shown
HCT116 Cytotox EC50 [4]: > 3000 pM | EC50 [13]: 531 pM | EC50 (Cyno CD3): 482 pM | CynoTROP2 + HEK293 cells Cytotox EC50 [11]: 5 pM

B10: TCE-7 (TROP2 Fab HC F108A TCE, scFv on the Fab HC) (bispecific antibody)
light: B1 light
heavy: not shown
notes: Description names a HisTag on the HC
EC50 [14]: 1400 pM | TCE Cytotoxicity EC50, H292 + CD8+ T cells [15]: 5.6 pM | TCE Cytotoxicity EC50, HCT116 + CD8+ T cells [15]: 206 pM | TCE Cytotoxicity EC50, MDAMB231 + CD8+ T cells [15]: 47.8 pM

B11: TCE-36 (anti-CD3 scFv with N30Q, I109V, G172A, V231A; anti-TROP2 wt) (bispecific antibody)
light: B1 light
heavy: not shown
Kd [16]: 9110 pM | Response [16]: 0.931 | H292 Cytotox EC50 [2]: 2.1 pM

B12: TCE-39 (anti-CD3 scFv F104A, anti-TROP2 HC F108A) (bispecific antibody)
light: B1 light
heavy: not shown
EC50 [13]: 761 pM | EC50 (Cyno CD3): 671 pM | EC50 [10]: 1020 pM

B13: TCE-37 (anti-CD3 scFv wt, anti-TROP2 HC F108A) (bispecific antibody)
light: B1 light
heavy: not shown
HCT116 Cytotox EC50 [4]: 109 pM | EC50 (Cyno CD3): 184 pM | H292 Cytotox EC50 [6]: 5 pM | EC50 [10]: 1150 pM | CynoTROP2 + HEK293 cells Cytotox EC50 [11]: 0.2 pM

B14: TCE-46 (bispecific antibody)
light chain (anti-TROP2 LC wt): B1 light
heavy chain (anti-CD3 scFv F240A + linker + anti-TROP2 D109A HC): not shown
notes: also called anti-CD3 scFv (F240A) + linker + anti-TROP2 (D109A) HC; anti-TROP2 LC wt
EC50 [12]: 1100 pM

B15: TCE-4 (TROP2 Fab HC F108A TCE, scFv on the Fab LC) (bispecific antibody)
light: not shown
heavy: QVQLQQSGSELKKPGASVKVSCKASGYTFTNYGMNWVKQAPGQGLKWMGWINTYTGEPTYTDDFKGRFAFSLDTSVSTAYLQISSLKADDTAVYFCARGGFGSSYWYADVWGQGSLVTVSSASTKGPSVFPLAPSSKSTSGGTAALGCLVKDYFPEPVTVSWNSGALTSGVHTFPAVLQSSGLYSLSSVVTVPSSSLGTQTYICNVNHKPSNTKVDKKVEPKSC
notes: Description names HisTag AviTag on the HC
EC50 [14]: 7300 pM | TCE Cytotoxicity EC50, H292 + CD8+ T cells [15]: 0.4 pM | TCE Cytotoxicity EC50, HCT116 + CD8+ T cells [15]: 18.3 pM | TCE Cytotoxicity EC50, MDAMB231 + CD8+ T cells [15]: 6.3 pM
